Data set [1] concerns the target T1, RXFP1 (Homo sapiens, UniProt Q9HBX9).
T1 construct: expressed in transfected cells; host or cells: HEK293
T1 sequence (Q9HBX9 1-757): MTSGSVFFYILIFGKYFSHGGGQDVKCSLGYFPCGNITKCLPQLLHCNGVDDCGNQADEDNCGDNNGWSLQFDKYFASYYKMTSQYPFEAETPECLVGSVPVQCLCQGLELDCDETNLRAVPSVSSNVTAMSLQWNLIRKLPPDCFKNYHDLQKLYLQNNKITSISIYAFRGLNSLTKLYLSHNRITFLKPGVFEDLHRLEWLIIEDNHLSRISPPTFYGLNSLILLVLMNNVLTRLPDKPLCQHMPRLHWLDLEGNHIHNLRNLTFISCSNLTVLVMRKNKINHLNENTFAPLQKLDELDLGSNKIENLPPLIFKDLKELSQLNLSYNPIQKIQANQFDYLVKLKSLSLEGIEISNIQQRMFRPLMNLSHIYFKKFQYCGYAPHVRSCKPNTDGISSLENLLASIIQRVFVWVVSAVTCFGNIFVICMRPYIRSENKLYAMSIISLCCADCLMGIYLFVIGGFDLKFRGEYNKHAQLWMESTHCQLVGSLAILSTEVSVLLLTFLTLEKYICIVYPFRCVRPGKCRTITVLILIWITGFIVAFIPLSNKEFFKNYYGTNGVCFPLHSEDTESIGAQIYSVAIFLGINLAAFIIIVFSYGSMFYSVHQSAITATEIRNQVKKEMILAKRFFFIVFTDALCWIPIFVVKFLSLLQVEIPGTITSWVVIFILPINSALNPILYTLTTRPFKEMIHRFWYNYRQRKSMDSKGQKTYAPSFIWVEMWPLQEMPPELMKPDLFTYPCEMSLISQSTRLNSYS
The data set can be described thus: Serelaxin in vitro activity in presence of bovine serum albumin and human serum #2: cAMP in RXFP1-HEK293 cells. It counts as cell-based.
Method: In Vitro Activity in Presence of Bovine Serum Albumin and Human Serum #2: Materials: DMEM: F12 media (Gibco, cat #11320) IBMX (Sigma, cat #15879) 384 solid bottom white plates (Greiner bio-one, cat #781945) 20,000 dynamic-2 cAMP kit (Cisbio, cat #62AM4PEC) Adenosine 3′, 5′-cyclic monophosphate (Sigma, cat #A9501) Matrix-plate mate plus (used for adding 5 μl of assays reagents) PBS-Gibco (cat #10010-023) 1M HEPES Gibco (cat-15630-080) 1×HBSS Gibco (cat-14175-095) Assay buffer—1×HBSS+10 mM HEPES Bovine serum albumin cat #A2153 (Sigma-Aldrich) Sigma Aldrich—H4522 (Human serum) Conditions:
10% Human Serum (Sigma aldrich—H4522)
• Serelaxin 10 ul stock dissolved in 190 ul of PBS, final concentration is 40 μM, which are diluted 3× fold by transferring 30 ul to 60 ul of the assay buffer 11 point curve, (A2-A12) 12th is zero. Serelaxin-FA conjugate: Stock is (287.79 uM) i.e 2.61 mg/ml MW is 9069 Daltons • Serelaxin 27.798 ul stock dissolved in 172.2 ul of PBS, final concentration is 40 μM, which are diluted 3× fold by transferring 30 ul to 60 ul of the assay buffer 11 point curve, (A2-A12) 12th is zero. BSA Stock Solution Preparation: For 666.66 uM BSA: Made assay buffer 30 mls by dissolving 1.32 gms of BSA For 600 uM BSA: Made assay buffer 30 ms by dissolving 1.18 gms of BSA No BSA, has only assay buffer Human Serum For 4.44% HS: 1.34 mls in 28.66 mls of assay buffer For 4% HS: 1.2 mls in 28.8 mls of assay buffer For 11.11% HS: 3.33 mls in 26.67 mls of assay buffer For 10% HS: 3 mls in 27 mls of assay buffer Procedure: Day 1: Seed 8,000 cells/well of RXFP1-HEK293 and HEK293 (parental) cells in 10 μl/well volume in basal DMEM:F12 media-on solid bottom plate. Incubate cells overnight at 37° C./5% CO2. Day 2: • 1. Wash cells 2× times with 50 ul of assay buffer and were tapped gently on paper towel to get rid of assay buffer after first and second wash • 2. Cells were pretreated with 15 ul of media with IBMX (666.66 uM) containing respective media (600 uM of BSA, 4% BSA, 10% Human serum and assay buffer alone) for 30 minutes at 37° C. • 3. Serially dilute cpds 3× times, 11 point curve—transferring 15 ul of cpds from previous well to subsequent well with 30 ul of PBS, well 11 is PBS only • 4. Dilute (1:10) in assay buffer from step 3 (i.e is 10 ul to 90 ul of assay buffer) • 5. Dilute again from step 4 (1:10) in respective media (666.66 μM of BSA &4.44% & 11.11% Human serum and assay buffer) final con of the BSA is 600 μM and Human serum is 4 & 10% • 6. (*Incubate the cpds for 1 hr at RT in their respective media, before adding to cells) • 7. […] Read FRET on Envision • 12. cAMP std curves were made in their respective media. cAMP Standard Curve Dilutions:
The initial stock of cAMP standard is 1120000 nM • 1. […] Read on HTRF—Envision Analysis: […]

The target of data set [2] is T1, RXFP1. The data set can be described thus: Serelaxin in vitro activity assay #1: cAMP HTRF in RXFP1-HEK293 cells. It counts as cell-based. The following applies: DMEM:F12 media. (In general: TR-FRET usually uses a lanthanide donor and a delayed reading to cut background.)
Method: Protocol: Day 1: Seeded RXFP1-HEK293/parental HEK293 cells 8k in 10 μl of DMEM: F12 media in solid bottom PDL coated white plates Day 2: Ran assay with the compound Agonist Mode (Overview): • Cells in 10 μl of DMEM:F12 media @37° C. O/N • 5 μl of 2000 μM (4×) of IBMX to the cells for 30 min at 37° C. • 5 μl of 4× compound/Serelaxin to the above for 30 min at 37° C. […]
Read FRET signal—Envision 665 nm/620 nm […]
Data set [3] can be described thus: In vivo plasma stability of AgRP conjugates, 10 nanomoles per rat iv, AgRP ELISA. To be noted: male Sprague-Dawley rats, 10 nanomoles per rat intravenously. The protocol: 10 nanomoles of conjugate was dissolved in 300 μL of PBS (Phosphate buffered saline) to form Dosing solution. Dosing solution ([…]) was administered intravenously to male Sprague-Dawley rats via lateral tail vein (corresponding to a dose 10 nanomoles per rat). Blood was collected via tail snip at prescribed times after dosing and immediately placed on wet ice. These samples were centrifuged at 4C, with supernatant plasma transferred to a fresh tube for analysis.
Standard curve preparation: The two fatty acid conjugates of examples 27A and 27B and one mature human AgRP peptide were used to make standards. Intermediate stock solutions of each AgRP were prepared by diluting the stock labeled peptides in ELISA sample diluent with casein to 100 ug/ml. For assay, intermediates were diluted to a top standard concentration of 2500 pg/mL and then diluted 2-fold serially to 16 points including a zero dose standard in ELISA sample diluent with bovine serum albumin (BSA). Sample dilution: Plasma samples were diluted 10-fold and then 5-fold serially out to 31,250-fold in ELISA sample diluent with BSA. […] Plates were washed a final time and a chemiluminescent substrate was added to all wells and plates were read immediately on a Spectramx M5 for light output. Data analysis: Raw data was organized and analyzed for basic PK parameters. […]
For orientation: ELISA stands for enzyme-linked immunosorbent assay.

For data set [4], the target named is T2, MC3R (Homo sapiens, UniProt P41968).
T2 construct: expressed in transfected cells; host or cells: HEK293
The experiment in a line: MC3 cAMP assay in HEK293/MC3R cells (antagonist protocol). The following applies: HEK293/MC3R stable cell line, against NDP-α-MSH EC80. It counts as cell-based. The protocol:
Cells: HEK293/MC3R stable cell line
• I. Aspirate conditioned medium • II. Wash with 2.5 mL of DPBS (Gibco, Cat. No. 14190) • III. Add 2 mL of 0.25% Trypsin-EDTA (Gibco, Cat. No. 25200-056) • IV. Leave the flask for few minutes in incubator, tap the flask a few time to detach cells. • V. Add 10 mL of the complete medium to stop Trypsin-EDTA treatment and mix it well by pipetting softly a few times to re-suspend clumping cells • VI. Transfer 1.5 ml of cells into a new 150 cm flask containing 20 ml of complete media • VII. Transfer the remaining suspension into a 50 mL centrifuge tube • VIII. Spin down at 1200 rpm for 4 mins. Aspirate supernatant • IX. Add 6 mL of the assay buffer to the tube and re-suspend the cells by softly pipetting • X. Transfer 0.5 mL of the suspension into a sample vial for Vi-cell and add another 0.5 ml of PBS. • XI. Count cell number by using a Vi-cell *Record cell density and viability every time • i. Plate cells at 4K/well in 10 ul/well of assay buffer containing IBMX. • ii. Leave the plate in incubator for ˜30 mins before assay is started on suspension cells.
Two step cAMP protocol is followed for cAMP determination.
• I. To 10 ul/well of cells add 5 ul of AgRP prepared at 3× in assay buffer only to antagonist wells. • II. Add 5 ul of buffer to positive control wells (wells that will have NDP-α-MSH). • III. Incubate the plate at 37° C. for ˜20 mins. • IV. […]
For orientation: Changes in cAMP serve as a functional read-out for many G protein-coupled receptors.

Data set [5] can be described thus: Pharmacokinetics (PK) assay of hPIP, single IV administration. It counts as in vivo. The following applies: DIO mice. The method, then:
Plasma exposure of hPIP were measured in DIO mice following a single IV administration. Briefly, freely-fed DIO mice (n=2) were administered with hPIP (native and FA-conjugated PIP; solution in PBS; administered at 4 ml/kg body weight) once intravenuously (IV). Blood samples were collected and plasma isolated at 0.25, 0.5, 1, 3, 7, 24 and 48 hrs post-dose by and in-house ELISA assay (protocol shown below).

The subject of data set [6] is high fat diet-induced obese (DIO) mice. The data set can be described thus: Glucose-stimulated insulin secretion (GSIS) assay. It counts as in vivo. The following applies: single IV dose 45 min before oral glucose 3 g/kg. The protocol: GSIS test was performed as a measurement of in vivo pancreatic beta cell function following recombinant human Prolactin-inducible Protein (hPIP) in high fat diet-induced obese (DIO) mice. Briefly, mice (m=5-7/group) were fasted overnight (5:00 PM-8:00 AM) and on the test day body weight and blood glucose (BG; determined with Embrace glucose meters) which was designated as baseline timepoint. Next, mice were administered with hPIP (native and FA-conjugated PIP; solution in PBS; administered at 4 ml/kg body weight) or a vehicle-control (PBS) once intravenuously (IV). Forty-five min following the hPIP administration, all mice were dosed with oral glucose (3 g/kg dextrose; solution in PBS; administered at 4 ml/kg body weight). Blood glucose was measured immediately before the glucose load (designated as 0 min time point) and at 15 and 30 min post-glucose. Blood samples were collected for plasma isolation and measurement of plasma insulin were carried out at 0, 15 and 30 min post-glucose.

Positions of bridges follow the written chain, without caps; N, C: chain ends. No end group written: not given here.

T2 sequence (P41968 whole entry, species assumed): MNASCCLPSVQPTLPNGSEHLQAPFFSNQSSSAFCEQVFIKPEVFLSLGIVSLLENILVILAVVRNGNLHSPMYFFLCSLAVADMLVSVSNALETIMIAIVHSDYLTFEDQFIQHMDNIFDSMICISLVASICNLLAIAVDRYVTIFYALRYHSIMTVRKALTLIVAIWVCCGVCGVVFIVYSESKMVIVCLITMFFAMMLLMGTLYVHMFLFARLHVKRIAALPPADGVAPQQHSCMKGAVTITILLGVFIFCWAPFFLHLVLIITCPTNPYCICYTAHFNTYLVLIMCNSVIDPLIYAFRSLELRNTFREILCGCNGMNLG

For the molecule “Serelaxin: Recombinant 1-chain human relaxin (DSWMEEVIKLCGRELVRAQIAICGMSTWSCFRALSRKTCGVHCCKNALASYLE; Serelaxin Sequence)”, the 50% effective concentration (EC50) worked out at 8 nM in data set [1] (0% Plasma); 0.3 nM in data set [1] (4% Plasma); 0.4 nM in data set [1] (10% Plasma); 0.7 nM in data set [1] (600 uL BSA); 1.12 nM in data set [2].

Consider “AgRP: mature human AgRP peptide (SSRRCVRLHESCLGQQVPCCDPCATCYCRFFNAFCYCRKLGTAMNPCSRT; disulfide 12-26, 19-37, 5-20, 23-47, 28-35)”, for which, in data set [3], the “In vivo Plasma stability t½” value amounted to 4.4 h. Further, a half-maximal effect in data set [4] (EC50) was put at 12 nM.

B1: Unconjugated PIP: recombinant human Prolactin-inducible Protein (hPIP), native (protein, UniProt P12273 29-146, looked up)
Prolactin-inducible protein: QDNTRKIIIKNFDIPKSVRPNDEVTAVLAVQTELKECMVVKTYLISSIPLQGAFNYKYTACLCDDNPKTFYWDFYTNRTVQIAAVVDVIRELGICPDDAAVIPIKNNRFYTIEILKVE
In data set [5], B1 displayed a Cmax of 220 nM and an MRT of 12.0 h. In addition, in data set [6], the “Plasma Insulin AUCB (ng/mL*min) compared to the vehicle” value is reported as “+29%”.

Broadly, the EC50 is the midpoint of the concentration-response curve. For orientation: Cmax means the peak of the concentration-time curve. Usually MRT stands for the average time that molecules of a dose stay in the body.

Source of the values: patent publication US11752211B2, “Fatty acids and their use in conjugation to biomolecules” (NOVARTIS AG, priority 2014, dated 2023).
